Reference: the supplement of paper PMC9112550, “Optimization of the antimicrobial peptide Bac7 by deep mutational scanning” (BMC Biology, 2022)

Test system: Escherichia coli TOP10
Assay: shrunken log2 fold change of peptide-encoding DNA abundance (4.5 h post-induction vs induction); higher = less antimicrobial activity (less host growth inhibition)
Details: time post-induction: 4.5 h; library: site-saturation at positions 5, 18, 19, 20
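Further: peptides expressed intracellularly from a pBAD plasmid library in pooled LB shake-flask culture, induced with 0.3% L-arabinose, DNA abundance read by NGS, three biological replicates, DESeq2 with apeglm shrinkage.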

RRIRPRPPRLPRPRPRPPNQPRP
shrunken log2 fold change: 0.282

RRIRPRPPRLPRPRPRPPNSPRP
shrunken log2 fold change: -0.0717

RRIRPRPPRLPRPRPRPPNTPRP
shrunken log2 fold change: 0.179

RRIRPRPPRLPRPRPRPPPNPRP
shrunken log2 fold change: 0.743

RRIRPRPPRLPRPRPRPPPRPRP
shrunken log2 fold change: 0.91

RRIRPRPPRLPRPRPRPPQDPRP
shrunken log2 fold change: 0.523

RRIRPRPPRLPRPRPRPPSHPRP
shrunken log2 fold change: 0.0789

RRIRPRPPRLPRPRPRPPSQPRP
shrunken log2 fold change: 0.334

RRIRPRPPRLPRPRPRPPSVPRP
shrunken log2 fold change: 0.321

RRIRPRPPRLPRPRPRPPWIPRP
shrunken log2 fold change: -0.0483

RRIRPRPPRLPRPRPRPPWKPRP
shrunken log2 fold change: 0.416

RRIRPRPPRLPRPRPRPPYQPRP
shrunken log2 fold change: 0.249

RRIRPRPPRLPRPRPRPPYVPRP
shrunken log2 fold change: -0.0964

RRIRPRPPRLPRPRPRPQALPRP
shrunken log2 fold change: 0.339

RRIRPRPPRLPRPRPRPQCGPRP
shrunken log2 fold change: -0.0915

RRIRPRPPRLPRPRPRPQDRPRP
shrunken log2 fold change: -0.0277

RRIRPRPPRLPRPRPRPQFDPRP
shrunken log2 fold change: -0.0475

RRIRPRPPRLPRPRPRPQFNPRP
shrunken log2 fold change: -0.5

RRIRPRPPRLPRPRPRPQKCPRP
shrunken log2 fold change: -0.0778

RRIRPRPPRLPRPRPRPQKNPRP
shrunken log2 fold change: -0.169

RRIRPRPPRLPRPRPRPQKTPRP
shrunken log2 fold change: -0.0227

RRIRPRPPRLPRPRPRPQKVPRP
shrunken log2 fold change: 0.0449

RRIRPRPPRLPRPRPRPQLKPRP
shrunken log2 fold change: 0.202

RRIRPRPPRLPRPRPRPQLWPRP
shrunken log2 fold change: 0.221

RRIRPRPPRLPRPRPRPQMMPRP
shrunken log2 fold change: -0.41

RRIRPRPPRLPRPRPRPQNCPRP
shrunken log2 fold change: -0.621

RRIRPRPPRLPRPRPRPQQKPRP
shrunken log2 fold change: 0.433

RRIRPRPPRLPRPRPRPQTCPRP
shrunken log2 fold change: 0.111

RRIRPRPPRLPRPRPRPQTIPRP
shrunken log2 fold change: -0.0413

RRIRPRPPRLPRPRPRPQTWPRP
shrunken log2 fold change: -0.254

RRIRPRPPRLPRPRPRPQVGPRP
shrunken log2 fold change: 0.0207

RRIRPRPPRLPRPRPRPQWHPRP
shrunken log2 fold change: -0.176

RRIRPRPPRLPRPRPRPQYNPRP
shrunken log2 fold change: -0.742

RRIRPRPPRLPRPRPRPRAQPRP
shrunken log2 fold change: 0.33

RRIRPRPPRLPRPRPRPRDLPRP
shrunken log2 fold change: 0.172

RRIRPRPPRLPRPRPRPREEPRP
shrunken log2 fold change: 0.111

RRIRPRPPRLPRPRPRPRELPRP
shrunken log2 fold change: 0.39

RRIRPRPPRLPRPRPRPRFDPRP
shrunken log2 fold change: 0.197

RRIRPRPPRLPRPRPRPRFVPRP
shrunken log2 fold change: 0.109

RRIRPRPPRLPRPRPRPRGFPRP
shrunken log2 fold change: 0.341

RRIRPRPPRLPRPRPRPRGIPRP
shrunken log2 fold change: -0.176

RRIRPRPPRLPRPRPRPRHWPRP
shrunken log2 fold change: 0.423

RRIRPRPPRLPRPRPRPRIDPRP
shrunken log2 fold change: -0.0848

RRIRPRPPRLPRPRPRPRIGPRP
shrunken log2 fold change: 0.0981

RRIRPRPPRLPRPRPRPRIKPRP
shrunken log2 fold change: -0.138

RRIRPRPPRLPRPRPRPRKPPRP
shrunken log2 fold change: -0.0217

RRIRPRPPRLPRPRPRPRLSPRP
shrunken log2 fold change: 0.306

RRIRPRPPRLPRPRPRPRMDPRP
shrunken log2 fold change: 0.176

RRIRPRPPRLPRPRPRPRNDPRP
shrunken log2 fold change: -0.479

RRIRPRPPRLPRPRPRPRNHPRP
shrunken log2 fold change: -0.196

RRIRPRPPRLPRPRPRPRNKPRP
shrunken log2 fold change: -0.136

RRIRPRPPRLPRPRPRPRNNPRP
shrunken log2 fold change: -0.228

RRIRPRPPRLPRPRPRPRPFPRP
shrunken log2 fold change: 0.248

RRIRPRPPRLPRPRPRPRQLPRP
shrunken log2 fold change: 0.247

RRIRPRPPRLPRPRPRPRSFPRP
shrunken log2 fold change: 0.0582

RRIRPRPPRLPRPRPRPRSQPRP
shrunken log2 fold change: 0.263

RRIRPRPPRLPRPRPRPRTMPRP
shrunken log2 fold change: 0.276

RRIRPRPPRLPRPRPRPRTPPRP
shrunken log2 fold change: 0.536

RRIRPRPPRLPRPRPRPRVMPRP
shrunken log2 fold change: 0.327

RRIRPRPPRLPRPRPRPRYMPRP
shrunken log2 fold change: -0.213

RRIRPRPPRLPRPRPRPSDPPRP
shrunken log2 fold change: -0.184

RRIRPRPPRLPRPRPRPSDSPRP
shrunken log2 fold change: -0.361

RRIRPRPPRLPRPRPRPSFVPRP
shrunken log2 fold change: -0.436

RRIRPRPPRLPRPRPRPSGQPRP
shrunken log2 fold change: -0.0898

RRIRPRPPRLPRPRPRPSGSPRP
shrunken log2 fold change: 0.0191

RRIRPRPPRLPRPRPRPSHKPRP
shrunken log2 fold change: -0.0374

RRIRPRPPRLPRPRPRPSICPRP
shrunken log2 fold change: -0.718

RRIRPRPPRLPRPRPRPSKIPRP
shrunken log2 fold change: -0.129

RRIRPRPPRLPRPRPRPSKVPRP
shrunken log2 fold change: -0.223

RRIRPRPPRLPRPRPRPSLPPRP
shrunken log2 fold change: -0.187

RRIRPRPPRLPRPRPRPSMFPRP
shrunken log2 fold change: -0.437

RRIRPRPPRLPRPRPRPSNIPRP
shrunken log2 fold change: -1.15

RRIRPRPPRLPRPRPRPSNSPRP
shrunken log2 fold change: -0.794

RRIRPRPPRLPRPRPRPSNYPRP
shrunken log2 fold change: -0.733

RRIRPRPPRLPRPRPRPSPAPRP
shrunken log2 fold change: 0.209

RRIRPRPPRLPRPRPRPSSFPRP
shrunken log2 fold change: -0.345

RRIRPRPPRLPRPRPRPSSGPRP
shrunken log2 fold change: -0.494

RRIRPRPPRLPRPRPRPSSTPRP
shrunken log2 fold change: -0.315

RRIRPRPPRLPRPRPRPSSVPRP
shrunken log2 fold change: 0.0854

RRIRPRPPRLPRPRPRPSSYPRP
shrunken log2 fold change: -0.197

RRIRPRPPRLPRPRPRPSTPPRP
shrunken log2 fold change: -0.0766

RRIRPRPPRLPRPRPRPSWRPRP
shrunken log2 fold change: -0.0524

RRIRPRPPRLPRPRPRPTALPRP
shrunken log2 fold change: 0.0271

RRIRPRPPRLPRPRPRPTCIPRP
shrunken log2 fold change: -0.146

RRIRPRPPRLPRPRPRPTDQPRP
shrunken log2 fold change: 0.399

RRIRPRPPRLPRPRPRPTEAPRP
shrunken log2 fold change: -0.258

RRIRPRPPRLPRPRPRPTERPRP
shrunken log2 fold change: 0.649

RRIRPRPPRLPRPRPRPTGAPRP
shrunken log2 fold change: 0.55

RRIRPRPPRLPRPRPRPTGHPRP
shrunken log2 fold change: 0.0828

RRIRPRPPRLPRPRPRPTHLPRP
shrunken log2 fold change: 0.23

RRIRPRPPRLPRPRPRPTLSPRP
shrunken log2 fold change: 0.421

RRIRPRPPRLPRPRPRPTMFPRP
shrunken log2 fold change: -0.164

RRIRPRPPRLPRPRPRPTNSPRP
shrunken log2 fold change: -0.195

RRIRPRPPRLPRPRPRPTNWPRP
shrunken log2 fold change: 0.214

RRIRPRPPRLPRPRPRPTPAPRP
shrunken log2 fold change: 0.618

RRIRPRPPRLPRPRPRPTPKPRP
shrunken log2 fold change: 0.528

RRIRPRPPRLPRPRPRPTPTPRP
shrunken log2 fold change: 0.483

RRIRPRPPRLPRPRPRPTRCPRP
shrunken log2 fold change: 0.279

RRIRPRPPRLPRPRPRPTRHPRP
shrunken log2 fold change: 0.43

RRIRPRPPRLPRPRPRPTSDPRP
shrunken log2 fold change: 0.0712

RRIRPRPPRLPRPRPRPTSSPRP
shrunken log2 fold change: 0.0475

RRIRPRPPRLPRPRPRPTTNPRP
shrunken log2 fold change: 0.199

RRIRPRPPRLPRPRPRPTTPPRP
shrunken log2 fold change: 0.322

RRIRPRPPRLPRPRPRPTTYPRP
shrunken log2 fold change: -0.141

RRIRPRPPRLPRPRPRPTVHPRP
shrunken log2 fold change: -0.0233

RRIRPRPPRLPRPRPRPTWQPRP
shrunken log2 fold change: 0.543

RRIRPRPPRLPRPRPRPTYGPRP
shrunken log2 fold change: -0.171

RRIRPRPPRLPRPRPRPTYMPRP
shrunken log2 fold change: -0.0483

RRIRPRPPRLPRPRPRPTYTPRP
shrunken log2 fold change: -0.272

RRIRPRPPRLPRPRPRPVAAPRP
shrunken log2 fold change: 0.406

RRIRPRPPRLPRPRPRPVDDPRP
shrunken log2 fold change: 0.103

RRIRPRPPRLPRPRPRPVDYPRP
shrunken log2 fold change: 0.0307

RRIRPRPPRLPRPRPRPVEAPRP
shrunken log2 fold change: 0.481

RRIRPRPPRLPRPRPRPVEVPRP
shrunken log2 fold change: -0.0864

RRIRPRPPRLPRPRPRPVFDPRP
shrunken log2 fold change: 0.342

RRIRPRPPRLPRPRPRPVFLPRP
shrunken log2 fold change: -0.128

RRIRPRPPRLPRPRPRPVFSPRP
shrunken log2 fold change: -0.00413

RRIRPRPPRLPRPRPRPVGLPRP
shrunken log2 fold change: 0.478

RRIRPRPPRLPRPRPRPVHMPRP
shrunken log2 fold change: 0.215

RRIRPRPPRLPRPRPRPVIHPRP
shrunken log2 fold change: -0.435

RRIRPRPPRLPRPRPRPVLYPRP
shrunken log2 fold change: -0.335

RRIRPRPPRLPRPRPRPVNSPRP
shrunken log2 fold change: -0.196

RRIRPRPPRLPRPRPRPVNWPRP
shrunken log2 fold change: 0.297

RRIRPRPPRLPRPRPRPVNYPRP
shrunken log2 fold change: -0.335

RRIRPRPPRLPRPRPRPVRSPRP
shrunken log2 fold change: 0.371

RRIRPRPPRLPRPRPRPVWTPRP
shrunken log2 fold change: 0.224

RRIRPRPPRLPRPRPRPVYSPRP
shrunken log2 fold change: -0.297

RRIRPRPPRLPRPRPRPVYVPRP
shrunken log2 fold change: -0.167

RRIRPRPPRLPRPRPRPWAFPRP
shrunken log2 fold change: 0.144

RRIRPRPPRLPRPRPRPWAVPRP
shrunken log2 fold change: -0.227

RRIRPRPPRLPRPRPRPWCDPRP
shrunken log2 fold change: -0.301

RRIRPRPPRLPRPRPRPWEGPRP
shrunken log2 fold change: 0.0632

RRIRPRPPRLPRPRPRPWELPRP
shrunken log2 fold change: 0.0728

RRIRPRPPRLPRPRPRPWEWPRP
shrunken log2 fold change: 0.0238

RRIRPRPPRLPRPRPRPWGAPRP
shrunken log2 fold change: 0.738

RRIRPRPPRLPRPRPRPWGKPRP
shrunken log2 fold change: 0.248

RRIRPRPPRLPRPRPRPWGQPRP
shrunken log2 fold change: 0.0568

RRIRPRPPRLPRPRPRPWIPPRP
shrunken log2 fold change: -0.225

RRIRPRPPRLPRPRPRPWKFPRP
shrunken log2 fold change: -0.0127

RRIRPRPPRLPRPRPRPWKPPRP
shrunken log2 fold change: -0.149

RRIRPRPPRLPRPRPRPWLPPRP
shrunken log2 fold change: -0.0294

RRIRPRPPRLPRPRPRPWMFPRP
shrunken log2 fold change: -0.306

RRIRPRPPRLPRPRPRPWMNPRP
shrunken log2 fold change: -0.0141

RRIRPRPPRLPRPRPRPWMQPRP
shrunken log2 fold change: 0.0452

RRIRPRPPRLPRPRPRPWQHPRP
shrunken log2 fold change: -0.105

RRIRPRPPRLPRPRPRPWQIPRP
shrunken log2 fold change: 0.452

RRIRPRPPRLPRPRPRPWRTPRP
shrunken log2 fold change: 0.141

RRIRPRPPRLPRPRPRPWTDPRP
shrunken log2 fold change: 0.0245

RRIRPRPPRLPRPRPRPWTSPRP
shrunken log2 fold change: -0.0224

RRIRPRPPRLPRPRPRPWTVPRP
shrunken log2 fold change: -0.155
